The Human Domainome abundance scans (Beltran et al. 2025)
± gives the uncertainty stated by the source.

B1: POU domain, class 3, transcription factor 3, residues 408 to 463; numbered along this chain, P20264 (parent)
chain: KKRTSIEVSVKGALESHFLKCPKPSAQEITNLADSLQLEKEVVRVWFCNRRQKEKR

Variants of: B1
Assay: abundance fitness (aPCA) (normalised: wild type 0, dead -1); higher = more abundant; growth selection in yeast, the domain comes from the species named
Settings: Homo sapiens

Abundance fitness of substitutions, site by site:
C21: K -0.408 ± 0.12 | D -0.094 ± 0.12 | S 0.041 ± 0.086 | V -0.249 ± 0.069 | Y -0.383 ± 0.12 | R -0.501 ± 0.063 | L -0.611 ± 0.088 | H -0.031 ± 0.19 | M -0.314 ± 0.1 | P -0.719 ± 0.13 | G -0.468 ± 0.062 | Q 0.084 ± 0.11 | I -0.73 ± 0.24 | T -0.094 ± 0.1 | E 0.048 ± 0.089 | F -0.407 ± 0.16
H17: W -0.048 ± 0.08 | F -0.104 ± 0.15 | P -0.807 ± 0.16 | E -0.176 ± 0.089 | S -0.039 ± 0.085 | I -0.219 ± 0.14 | T -0.234 ± 0.096 | Y 0.041 ± 0.11 | V -0.069 ± 0.07 | N -0.189 ± 0.16 | Q -0.134 ± 0.12 | C -0.201 ± 0.11 | M -0.147 ± 0.1 | G -0.683 ± 0.074 | L -0.188 ± 0.081 | A -0.055 ± 0.081 | R -0.444 ± 0.072
P22: G -0.19 ± 0.11 | Y -0.383 ± 0.47 | I -0.572 ± 0.23 | K -0.432 ± 0.48 | A -0.121 ± 0.2 | L -0.732 ± 0.41 | R -0.398 ± 0.14 | V -0.641 ± 0.18 | H -0.448 ± 0.36 | S -0.35 ± 0.17
L14: Y -0.815 ± 0.18 | T -0.839 ± 0.12 | D -0.697 ± 0.22 | Q -0.942 ± 0.17 | E -1.11 ± 0.16 | F -0.899 ± 0.29 | W -1.01 ± 0.12 | S -0.87 ± 0.097 | A -0.8 ± 0.1 | N -1.01 ± 0.18 | V -0.899 ± 0.1 | C -0.662 ± 0.12 | G -0.958 ± 0.083 | P -1 ± 0.18 | I -0.45 ± 0.2
G12: P -0.056 ± 0.1 | M 0.161 ± 0.11 | W -0.25 ± 0.084 | R 0.007 ± 0.061 | Q -0.094 ± 0.14 | F -0.054 ± 0.11 | Y 0.103 ± 0.14 | H -0.009 ± 0.16 | T 0.078 ± 0.099 | A 0.227 ± 0.087 | I 0.051 ± 0.16 | L 0.104 ± 0.071 | V 0.211 ± 0.075 | K -0.035 ± 0.15 | C 0.096 ± 0.12 | E 0.111 ± 0.091 | N 0.11 ± 0.15 | D 0.048 ± 0.1
I6: S -0.077 ± 0.078 | Y -0.189 ± 0.12 | R -0.108 ± 0.068 | Q -0.084 ± 0.09 | T 0.058 ± 0.13 | W -0.124 ± 0.088 | V -0.093 ± 0.082
V8: W -0.141 ± 0.1 | N 0.039 ± 0.17 | G 0.055 ± 0.063 | A -0.032 ± 0.097 | L 0.1 ± 0.08 | P 0.195 ± 0.12 | K 0.068 ± 0.11 | F 0.04 ± 0.27 | R 0.001 ± 0.062 | S 0.218 ± 0.092 | D -0.075 ± 0.13 | T 0.161 ± 0.1 | E 0.088 ± 0.096 | M 0.098 ± 0.12 | H -0.052 ± 0.15 | Y -0.369 ± 0.21 | I 0.1 ± 0.084 | C -0.171 ± 0.11
A13: Q -0.099 ± 0.11 | N -0.274 ± 0.18 | F -0.191 ± 0.17 | V 0.111 ± 0.075 | T -0.058 ± 0.096 | C -0.199 ± 0.11 | L -0.093 ± 0.077 | I -0.046 ± 0.18 | D -0.355 ± 0.13 | R 0.018 ± 0.064 | M -0.096 ± 0.12 | E -0.081 ± 0.095 | W -0.344 ± 0.092 | S -0.079 ± 0.089 | G -0.46 ± 0.067 | P -0.353 ± 0.12 | Y -0.17 ± 0.14
K20: F -0.438 ± 0.12 | G -0.366 ± 0.079 | M -0.187 ± 0.12 | T -0.256 ± 0.1 | V -0.127 ± 0.089 | N -0.109 ± 0.11 | Q 0.054 ± 0.14 | I -0.191 ± 0.1 | Y -0.335 ± 0.11 | P -0.912 ± 0.17 | H -0.279 ± 0.14 | C -0.465 ± 0.14 | R -0.05 ± 0.075 | D -0.197 ± 0.15 | L -0.195 ± 0.072 | A -0.218 ± 0.079 | S -0.233 ± 0.078 | W -0.421 ± 0.097
S16: A -0.026 ± 0.089 | H -0.287 ± 0.17 | V -0.261 ± 0.075 | G -0.059 ± 0.065 | D 0.026 ± 0.11 | T -0.067 ± 0.13 | I -0.361 ± 0.17 | M -0.076 ± 0.12 | P -0.441 ± 0.13 | E 0.006 ± 0.091 | R -0.011 ± 0.063 | W -0.502 ± 0.088 | N -0.044 ± 0.17 | Q 0.012 ± 0.14 | Y -0.004 ± 0.14 | L -0.106 ± 0.084 | F -0.232 ± 0.099 | K 0.036 ± 0.12 | C -0.086 ± 0.12
A26: Q -0.024 ± 0.11 | R -0.073 ± 0.064 | P 0.039 ± 0.13 | F -0.297 ± 0.15 | C -0.102 ± 0.087 | V -0.1 ± 0.069 | M -0.063 ± 0.1 | H 0.071 ± 0.17 | T -0.081 ± 0.1 | E 0.031 ± 0.087 | D -0.004 ± 0.11 | G -0.086 ± 0.06 | S -0.168 ± 0.08 | W -0.155 ± 0.083 | L -0.005 ± 0.074
E7: F -0.263 ± 0.063 | S 0.144 ± 0.052 | P 0.167 ± 0.051 | D 0.05 ± 0.08 | H -0.016 ± 0.057 | V -0.197 ± 0.069 | L -0.09 ± 0.05 | Y -0.3 ± 0.06 | Q -0.035 ± 0.071 | G 0.013 ± 0.085 | R -0.057 ± 0.063 | K 0.028 ± 0.1 | A -0.096 ± 0.064 | M -0.035 ± 0.075 | I -0.157 ± 0.069 | N 0.063 ± 0.06 | T 0.134 ± 0.056 | W -0.436 ± 0.21
L19: M 0.033 ± 0.099 | G -0.238 ± 0.062 | V -0.075 ± 0.066 | F -0.346 ± 0.11 | Q 0.002 ± 0.1 | Y -0.288 ± 0.15 | E -0.086 ± 0.1 | S -0.047 ± 0.069 | T -0.155 ± 0.093 | K -0.057 ± 0.091 | R -0.024 ± 0.059 | N 0.014 ± 0.13 | H -0.173 ± 0.097 | A -0.029 ± 0.086 | W -0.339 ± 0.074 | D -0.191 ± 0.11 | P -1.09 ± 0.19 | C -0.138 ± 0.091
P24: T -0.825 ± 0.24 | M -0.867 ± 0.16 | L -0.881 ± 0.099 | F -0.827 ± 0.22 | E -0.871 ± 0.17 | K -0.93 ± 0.23 | I -0.731 ± 0.22 | G -1.05 ± 0.11 | Q -0.842 ± 0.2 | R -0.918 ± 0.094 | C -0.83 ± 0.19 | V -0.792 ± 0.093 | S -0.874 ± 0.13 | D -0.802 ± 0.17 | A -0.778 ± 0.14
E15: V -0.698 ± 0.21 | S -1 ± 0.3 | K -0.582 ± 0.3 | R -1.03 ± 0.24 | G -1.02 ± 0.23 | A -0.858 ± 0.28 | L -0.599 ± 0.19 | N -1.02 ± 0.41 | M -0.713 ± 0.4 | W -0.593 ± 0.23 | D -0.753 ± 0.42
F18: N -1.18 ± 0.24 | I -0.973 ± 0.2 | L -1.01 ± 0.11 | E -0.875 ± 0.12 | W -0.5 ± 0.096 | V -0.859 ± 0.077 | D -0.568 ± 0.16 | T -0.922 ± 0.14 | K -0.925 ± 0.15 | C -0.935 ± 0.16 | Y 0.026 ± 0.12 | R -0.935 ± 0.097 | H -0.932 ± 0.21 | Q -0.703 ± 0.2 | S -0.902 ± 0.11 | A -0.84 ± 0.091
K11: I -0.006 ± 0.11 | M -0.006 ± 0.16 | N -0.27 ± 0.15 | G -0.135 ± 0.067 | V -0.085 ± 0.073 | P -0.024 ± 0.12 | A -0.099 ± 0.092 | Q -0.015 ± 0.12 | W -0.116 ± 0.089 | Y 0.067 ± 0.12 | H -0.04 ± 0.12 | R -0.045 ± 0.067 | C -0.141 ± 0.094 | F -0.186 ± 0.12
V10: S -0.153 ± 0.089 | G -0.241 ± 0.066 | T -0.023 ± 0.13 | N -0.148 ± 0.18 | R -0.108 ± 0.075 | F -0.291 ± 0.15 | A -0.005 ± 0.086 | C -0.108 ± 0.14 | I -0.066 ± 0.096 | L -0.042 ± 0.093 | P -0.472 ± 0.13 | M -0.192 ± 0.14 | Q 0.07 ± 0.13 | K -0.032 ± 0.13 | E 0.154 ± 0.13 | Y -0.129 ± 0.2 | H 0.072 ± 0.18 | D 0.176 ± 0.15
S25: Q -0.537 ± 0.11 | F -0.773 ± 0.25 | T -0.075 ± 0.11 | V -0.45 ± 0.081 | E -0.287 ± 0.11 | W -0.885 ± 0.11 | I -0.84 ± 0.41 | L -0.559 ± 0.078 | C -0.185 ± 0.11 | R -0.398 ± 0.065 | H -0.593 ± 0.17 | G -0.172 ± 0.063 | M -0.681 ± 0.15 | N -0.092 ± 0.16 | K -0.565 ± 0.11 | P -0.373 ± 0.14 | Y -0.66 ± 0.13
K23: M -0.031 ± 0.1 | A -0.001 ± 0.077 | T -0.052 ± 0.1 | W -0.084 ± 0.077 | N 0.248 ± 0.11 | S 0.033 ± 0.069 | Q -0.192 ± 0.12 | Y -0.05 ± 0.11 | E -0.028 ± 0.072 | I -0.065 ± 0.12 | D 0.114 ± 0.099 | R -0.049 ± 0.063 | F -0.034 ± 0.12 | V -0.082 ± 0.066 | P -0.724 ± 0.2 | L -0.057 ± 0.075 | H -0.127 ± 0.14 | G -0.252 ± 0.063
S9: H 0.092 ± 0.37 | I -0.368 ± 0.19 | F -0.285 ± 0.16 | A 0.054 ± 0.088 | K 0.01 ± 0.15 | E 0.072 ± 0.11 | N 0.166 ± 0.17 | L -0.206 ± 0.11 | Q 0.067 ± 0.36 | P -0.068 ± 0.18 | V -0.132 ± 0.092 | G 0.027 ± 0.065 | W -0.192 ± 0.12 | M -0.305 ± 0.15 | T -0.051 ± 0.13 | Y -0.015 ± 0.22 | C -0.247 ± 0.097 | R -0.018 ± 0.092 | D 0.038 ± 0.14
